Test results: patent publication US20240168030A1, “DIRECT FLUORESCENT GLYCAN LABELING” (BIO-TECHNE CORPORATION, priority 2019, published 2024)

Assays:
Type in all cases: biochemical
[1] = Enzymatic synthesis of Le^x and sLe^x by glycan gel electrophoresis, substrate G0
Description: (§1) FIG. 21A. Schematic view of the enzymatic steps for Le^X and sLe^X synthesis on the antibody glycan G0. The glycan short names follow that of FIG. 10. FIG. 21B Kinetic comparison of galactosylation on G0 by B4GalT1, sialyation on G2 by ST3Gal4 and ST6Gal1, and fucosylation on A2[3] by FUT7. The reaction time for B4GalT1 was 10 minutes. The reaction time for ST3Gal4, FUT7 and ST6Gal1 was 5 hours. In each case, the labeling enzyme was subject to a 3-fold serial dilution starting from 1 μg each of B4GalT1, FUT7 and ST6Gal1, and 3 μg ST3Gal4. FIG. 21C. […] Reaction time for both cases was 20 minutes. […] FIG. 21D. […] Reaction time for both cases was 20 minutes.
(§2) For a typical labeling reaction, 1 μg to 5 μg target protein was mixed with 0.2 nmol fluorophore-conjugated GDP-fucose and 0.2 μg of a fucosyltransferase in 30μL 25 mM Tris pH 7.5, 10 mM MnCl2. The mixture was incubated at 37° C. for 30 minutes. […] To release labeled glycans from a glycoprotein, the sample was first denatured by heating at 95° C. for two minutes in the presence of 0.5% SDS and 80 mM β-mercaptoethanol and then renatured with 1% Triton X-100, and finally treated with PNGase F at 10:1 mass ratio at 37° C. for 20 minutes. To release glycans from antibody, a sample was directly treated with Endo S at 10:1 mass ratio at 37° C. for 20 minutes. All samples were separated by sodium dodecyl sulfate—polyacrylamide gel electrophoresis (SDS-PAGE) at […]. For separating labeled glycoproteins and antibodies, 4-20% gradient SDS gel was used. For separating labeled free glycans, 15% or 17% gel was used. After separation, all gels were imaged using a FluorChem M imager (ProteinSimple, Bio-Techne, Minneapolis, MN). For glycoproteins samples, the gel was also imaged with traditional methods such as silver staining or trichloroethanol (TCE) staining.
(§3) For sLe^x synthesis, G0 was first converted to G2 by B4GalT1, then converted to A2[3] by ST3Gal4, and finally converted to A2[3]F2 (carrier of sLe^x) by FUT7 (FIG. 21A). […]

[2] = Le^a synthesis from FUT8-labeled G0 (G0f) quantified with response curve; conditions: for Completion of reaction in Le^a synthesis: FIG. 22B
Description: FIG. 22A-FIG. 22C show quantification of Le^a and its intermediate products. […] Lane 1 is labeled G0 (G0f) and lane 2 is labeled G2 (G2f). Lane 3 to 5 contain the intermediate reactions of converting G0f to the final Le^a carrying glycan A1 G1[3]F1f with the indicated enzymes. Lane 6 to lane 13 is a 2-fold serial dilution of G0f starting from 25 ng (19 pmol). The exposure time is 240 ms. The mass inputs of the serial dilution and all the band intensities were listed below the picture. FIG. 22C. The response curve of the serial dilution in FIG. 22B. The slope of the line represents the signal to mass ratio of G0f, which allows the quantification of the bands from lanes 1 to 5.
To evaluate the quantitative aspects of the glycan electrophoresis described in this article, a series of enzymatic reactions towards Le^a synthesis were run along with a 2-fold serial dilution of the FUT8-labeled antibody glycan G0 (G0f) (FIG. 22). Le^a was synthesized from G0f sequentially via the steps of galactosylation by B3GalT2, sialylation by ST3Gal3 and fucosylation by FUT3 (FIG. 22A). Major intermediate products of Le^a synthesis including G1[3]f, A1G1[3]f and A1 G1[3]F1f were observed (FIG. 22B). When the band intensities of the serial dilution of G0f in FIG. 22B were plotted against the masses of the glycan, a response curve with the linear coefficient of 0.9998 was obtained, with the slope of the curve representing the signal to mass ratio (FIG. 22C). The masses of the intermediates of Le^a synthesis were then calculated using the signal to mass ratio. […] In addition, the results also indicate that the sensitivity of the current method for glycan detection is below picomole level.

[3] = Enzymatic synthesis of sLe^x by glycan gel electrophoresis, substrate A2[3]; conditions: for Activity based on reaction completion: completed product sLe^x
Description: as §1, §2, §3

[4] = system: fetal bovine fetuin and asialofetuin; test: Labeling of fetuin and asialofetuin by fucosyltransferases with GDP-Cy5-Fuc; conditions: GDP-Cy5-Fuc donor, FIG. 9A
Description: FIG. 9A-FIG. 9B show exemplary results of probing substrate glycans of various fucosyltransferases on fetuin and asialofetuin. FIG. 9A. Probing substrate glycans of fucosyltransferases with guanosine 5′-diphosphate activated Cy5 conjugated fucose (GDP-Cy5-Fuc). […] FUT9 labeled itself (indicated by an arrow in the gel). FIG. 9B. Tolerance of Alexa-Fluor®555 (555), Alexa-Fluor®488 (488), and Cy5 by the indicated fucosyltransferases. All reactions were incubated at 37° C. for 30 minutes and then separated on SDS-PAGE and imaged with silver staining (upper panels) and fluorescent imager (lower panels). M, molecular marker.
For a typical labeling reaction, 1 μg to 5 μg target protein was mixed with 0.2 nmol GDP-f-Fuc and 0.2 μg of a fucosyltransferase in 30 μL buffer of 25 mM Tris pH 7.5, 10 mM MnCl2. The mixture was incubated at 37° C. for 30 minutes. The reaction was then separated by sodium dodecyl sulfate—polyacrylamide gel electrophoresis (SDS-PAGE) and the gel was directly imaged using a fluorescent imager FluorChem M ProteinSimple, Bio-Techne, Minneapolis, MN), followed by imaging with traditional protein imaging methods such as silver staining or trichloroethanol (TCE) staining.
The labeled samples were then separated on SDS-PAGE, followed by traditional protein gel imaging and fluorescent imaging.

[5] = Enzymatic synthesis of Le^x and sLe^x by glycan gel electrophoresis, substrate G2; conditions: substrate G2, completed product Le^x
Description: as §1, §2
For sLe^x synthesis, G0 was first converted to G2 by B4GalT1, then converted to A2[3] by ST3Gal4, and finally converted to A2[3]F2 (carrier of sLe^x) by FUT7 (FIG. 21A). During these steps, different amounts of enzymes, and multiple reaction times were applied to reveal the intermediate products.
Intermediate products are signs for the progress of each enzymatic step.

[6] = band masses from signal to mass ratio, FIG. 22

In the case of β-1,4-Galactosyltransferase 1 [B4GalT1], the “Time for the complete conversion of G0 to G2” value ([1]; FIG. 21B) is reported as 10 min, the “Activity based on reaction completion” value ([1]; substrate G0, completed product G2) is reported as 2.3 pmol/min/µg and the Relative activity ([1]; substrate G0, product G2, normalized to FUT6 on sLe^x synthesis) is reported as 17.

B1: ST3Gal3: recombinant human sialyltransferase that generates α2,3-sialylated N-glycans (protein, UniProt Q11203 1-375, looked up)
CMP-N-acetylneuraminate-beta-1 …: MGLLVFVRNLLLALCLFLVLGFLYYSAWKLHLLQWEEDSNSVVLSFDSAGQTLGSEYDRLGFLLNLDSKLPAELATKYANFSEGACKPGYASALMTAIFPRFSKPAPMFLDDSFRKWARIREFVPPFGIKGQDNLIKAILSVTKEYRLTPALDSLRCRRCIIVGNGGVLANKSLGSRIDDYDIVVRLNSAPVKGFEKDVGSKTTLRITYPEGAMQRPEQYERDSLFVLAGFKWQDFKWLKYIVYKERVSASDGFWKSVATRVPKEPPEIRILNPYFIQEAAFTLIGLPFNNGLMGRGNIPTLGSVAVTMALHGCDEVAVAGFGYDMSTPNAPLHYYETVRMAAIKESWTHNIQREKEFLRKLVKARVITDLSSGI
In the case of B1, the “Completion of reaction in Le^a synthesis” value [2] is reported as “almost completed”.

B2: B3GalT2: galactosyltransferase used for galactosylation in Le^a synthesis (protein, UniProt O43825 1-422, looked up)
Beta-1,3-galactosyltransferase …: MLQWRRRHCCFAKMTWNAKRSLFRTHLIGVLSLVFLFAMFLFFNHHDWLPGRAGFKENPVTYTFRGFRSTKSETNHSSLRNIWKETVPQTLRPQTATNSNNTDLSPQGVTGLENTLSANGSIYNEKGTGHPNSYHFKYIINEPEKCQEKSPFLILLIAAEPGQIEARRAIRQTWGNESLAPGIQITRIFLLGLSIKLNGYLQRAILEESRQYHDIIQQEYLDTYYNLTIKTLMGMNWVATYCPHIPYVMKTDSDMFVNTEYLINKLLKPDLPPRHNYFTGYLMRGYAPNRNKDSKWYMPPDLYPSERYPVFCSGTGYVFSGDLAEKIFKVSLGIRRLHLEDVYVGICLAKLRIDPVPPPNEFVFNHWRVSYSSCKYSHLITSHQFQPSELIKYWNHLQQNKHNACANAAKEKAGRYRHRKLH
For B2, the “Share of G0f converted to G1[3]f” value [2, 6] was 53% and the “Share of G0f converted to G2[3]f” value [2, 6] was 9%.

B3: FUT7: α-3 fucosyltransferase strictly active on sialyllactosamine (protein, UniProt Q11130 1-342, looked up)
Alpha-(1,3)-fucosyltransferase …: MNNAGHGPTRRLRGLGVLAGVALLAALWLLWLLGSAPRGTPAPQPTITILVWHWPFTDQPPELPSDTCTRYGIARCHLSANRSLLASADAVVFHHRELQTRRSHLPLAQRPRGQPWVWASMESPSHTHGLSHLRGIFNWVLSYRRDSDIFVPYGRLEPHWGPSPPLPAKSRVAAWVVSNFQERQLRARLYRQLAPHLRVDVFGRANGRPLCASCLVPTVAQYRFYLSFENSQHRDYITEKFWRNALVAGTVPVVLGPPRATYEAFVPADAFVHVDDFGSARELAAFLTGMNESRYQRFFAWRDRLRVRLFTDWRERFCAICDRYPHLPRSQVYEDLEGWFQA
For B3, the “Activity based on reaction completion” value [3] was 0.38 pmol/min/µg, the Relative activity ([3]; product sLe^x, normalized to FUT6 on sLe^x synthesis) was 2.8 and the “Which of fetuin and asialofetuin the fucosyltransferase labeled” value [4] was “labeled fetuin”.

B4: FUT3: fucosyltransferase used for fucosylation in Le^a synthesis (protein, UniProt P21217 1-361, looked up)
3-galactosyl-N-acetylglucosami …: MDPLGAAKPQWPWRRCLAALLFQLLVAVCFFSYLRVSRDDATGSPRAPSGSSRQDTTPTRPTLLILLRTWPFHIPVALSRCSEMVPGTADCHITADRKVYPQADMVIVHHWDIMSNPKSRLPPSPRPQGQRWIWFNLEPPPNCQHLEALDRYFNLTMSYRSDSDIFTPYGWLEPWSGQPAHPPLNLSAKTELVAWAVSNWKPDSARVRYYQSLQAHLKVDVYGRSHKPLPKGTMMETLSRYKFYLAFENSLHPDYITEKLWRNALEAWAVPVVLGPSRSNYERFLPPDAFIHVDDFQSPKDLARYLQELDKDHARYLSYFRWRETLRPRSFSWALDFCKACWKLQQESRYQTVRSIAAWFT
For B4, the “Completion of reaction in Le^a synthesis” value [2] was “almost completed”.

B5: FUT6: recombinant α-3 fucosyltransferase active on lactosamine and sialyllactosamine (protein, UniProt P51993 1-359, looked up)
4-galactosyl-N-acetylglucosami …: MDPLGPAKPQWSWRCCLTTLLFQLLMAVCFFSYLRVSQDDPTVYPNGSRFPDSTGTPAHSIPLILLWTWPFNKPIALPRCSEMVPGTADCNITADRKVYPQADAVIVHHREVMYNPSAQLPRSPRRQGQRWIWFSMESPSHCWQLKAMDGYFNLTMSYRSDSDIFTPYGWLEPWSGQPAHPPLNLSAKTELVAWAVSNWGPNSARVRYYQSLQAHLKVDVYGRSHKPLPQGTMMETLSRYKFYLAFENSLHPDYITEKLWRNALEAWAVPVVLGPSRSNYERFLPPDAFIHVDDFQSPKDLARYLQELDKDHARYLSYFRWRETLRPRSFSWALAFCKACWKLQEESRYQTRGIAAWFT
With B5 the “Activity based on reaction completion” value [5] was 2.3 pmol/min/µg, the “Activity based on reaction completion” value [3] was 13.5 pmol/min/µg and the “Which of fetuin and asialofetuin the fucosyltransferase labeled” value [4] was “labeled both fetuin and asialofetuin”.
